Experiments:
LNCaP细胞上表达的PSMA = target: T1, LNCaP细胞上表达的PSMA (human, UniProt Q04609 1-750); assay: Scatchard analysis, 111In-DOTA-labelled antibody binding to a fixed number of LNCaP cells
T1 construct: whole, on cells; Endogenous PSMA of LNCaP cells; also used for the LNCaP membrane-fraction ELISA; also called PSMA on LNCaP cells; LNCaP细胞膜

[1] = target: T2, 细菌表达的含有PSMA氨基酸134-437的融合蛋白 (human, UniProt Q04609 134-437); assay: solid-phase ELISA on bacterially expressed PSMA fragment fusion proteins
T2 construct: Bacterially expressed fusion protein

[2] = target: T3, 细菌表达的含有PSMA氨基酸438-750的融合蛋白 (human, UniProt Q04609 438-750); assay: as above
T3 construct: range 438-750; Bacterially expressed fusion protein; also called PSMA 438-750 fusion protein

细菌表达的含有PSMA氨基酸1-173的融合蛋白 = target: T4, 细菌表达的含有PSMA氨基酸1-173的融合蛋白 (human, UniProt Q04609 1-173); assay: as above
T4 construct: Bacterially expressed fusion protein
T4 sequence (Q04609 1-173): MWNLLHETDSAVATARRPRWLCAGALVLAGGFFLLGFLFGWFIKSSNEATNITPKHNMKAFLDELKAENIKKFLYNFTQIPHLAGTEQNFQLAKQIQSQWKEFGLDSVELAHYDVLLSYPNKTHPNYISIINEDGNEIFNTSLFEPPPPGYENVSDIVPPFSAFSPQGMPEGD

T3 sequence (Q04609 438-750): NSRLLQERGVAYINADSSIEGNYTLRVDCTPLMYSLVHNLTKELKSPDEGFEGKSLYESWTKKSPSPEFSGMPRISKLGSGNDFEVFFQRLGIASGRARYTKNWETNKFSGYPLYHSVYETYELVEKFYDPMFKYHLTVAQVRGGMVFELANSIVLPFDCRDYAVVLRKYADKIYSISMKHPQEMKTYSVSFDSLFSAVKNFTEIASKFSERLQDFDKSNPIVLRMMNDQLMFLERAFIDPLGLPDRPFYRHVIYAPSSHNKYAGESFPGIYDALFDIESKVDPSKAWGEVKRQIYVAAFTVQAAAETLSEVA
T2 sequence (Q04609 134-437): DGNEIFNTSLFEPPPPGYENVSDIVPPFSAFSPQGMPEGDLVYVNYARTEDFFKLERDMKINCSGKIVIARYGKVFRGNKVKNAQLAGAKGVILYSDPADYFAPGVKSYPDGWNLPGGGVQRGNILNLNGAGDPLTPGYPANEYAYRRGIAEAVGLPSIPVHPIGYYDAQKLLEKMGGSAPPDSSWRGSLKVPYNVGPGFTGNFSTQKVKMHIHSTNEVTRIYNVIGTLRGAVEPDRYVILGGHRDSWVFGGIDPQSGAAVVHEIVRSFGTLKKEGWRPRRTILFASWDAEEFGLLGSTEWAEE
T1 sequence (Q04609 whole entry): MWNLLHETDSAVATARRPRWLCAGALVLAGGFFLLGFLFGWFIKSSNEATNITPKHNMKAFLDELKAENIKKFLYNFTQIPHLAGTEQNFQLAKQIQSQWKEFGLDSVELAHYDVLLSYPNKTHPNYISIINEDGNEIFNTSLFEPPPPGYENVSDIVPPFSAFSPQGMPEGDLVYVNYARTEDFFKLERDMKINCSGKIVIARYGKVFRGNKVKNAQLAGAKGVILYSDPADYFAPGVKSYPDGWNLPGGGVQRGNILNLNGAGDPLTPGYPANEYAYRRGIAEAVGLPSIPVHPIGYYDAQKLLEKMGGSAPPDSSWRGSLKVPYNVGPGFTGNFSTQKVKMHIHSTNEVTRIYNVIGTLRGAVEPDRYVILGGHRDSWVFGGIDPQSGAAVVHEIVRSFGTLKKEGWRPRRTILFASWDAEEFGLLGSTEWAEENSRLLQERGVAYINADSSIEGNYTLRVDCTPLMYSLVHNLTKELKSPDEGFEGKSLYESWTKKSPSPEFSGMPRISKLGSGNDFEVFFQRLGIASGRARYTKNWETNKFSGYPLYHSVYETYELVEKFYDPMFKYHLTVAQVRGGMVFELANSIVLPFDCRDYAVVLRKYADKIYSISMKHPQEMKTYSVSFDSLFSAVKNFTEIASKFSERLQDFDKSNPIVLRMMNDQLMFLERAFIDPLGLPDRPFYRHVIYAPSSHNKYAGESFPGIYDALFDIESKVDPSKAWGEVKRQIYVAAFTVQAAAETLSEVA

Binder | Kd (LNCaP细胞上表达的PSMA) [nM] | binding result [1] | binding result [2] | binding result (细菌表达的含有PSMA氨基酸1-173的融合蛋白)
DOTA-标记的4A3 (antibody, IgG1, V domains shown, DOTA coupled through one carboxyl group to protein amino groups, sites not stated; 111In chelated in the Scatchard study, 4A3 IgG1 kappa conjugated with DOTA; also called DOTA-4A3; 111 In-DOTA-标记抗体 4A3) VH: EVQLVQSGAEVKKPGESLKISCKGSGYSFTSYWIGWARQMPGKGLEWMGIIYPGDSDTRYSPSFQGQVTISADKSISTAYLQWSSLKASDTAMYYCSAANSSHWYFDLWGRGTLVTVSS VL: EIVLTQSPATLSLSPGERATLSCRASQSVSSYLAWFQQKPGQAPRLLIYDASNRATGIPARFSGSGSGTDFTLTISSLEPEDFAVYYCQQRSNWLMYTFGQGTKLEIK | 0.5 |  |  | 
人单克隆抗体(HuMAb)4A3 (antibody, V domains shown, Human IgG1 kappa (γ1,κ) from a hybridoma of HuMAb mouse #17018) VH: EVQLVQSGAEVKKPGESLKISCKGSGYSFTSYWIGWARQMPGKGLEWMGIIYPGDSDTRYSPSFQGQVTISADKSISTAYLQWSSLKASDTAMYYCSAANSSHWYFDLWGRGTLVTVSS VL: EIVLTQSPATLSLSPGERATLSCRASQSVSSYLAWFQQKPGQAPRLLIYDASNRATGIPARFSGSGSGTDFTLTISSLEPEDFAVYYCQQRSNWLMYTFGQGTKLEIK |  | no binding | no binding | no binding
人单克隆抗体(HuMAb)7F12 (antibody, V domains shown, Human IgG1 kappa (γ1,κ) from a hybridoma of HuMAb mouse #17018) VH: AVQLVQSGAEVKKPGESLKISCKGSGYSFTSFWIGWARQMPGKGLEWMGIIYPGDSDTRYSPSFQGQVTISADKSISTAYLQWSSLKASDTAMYYCATANSSFWNFDLWGRGTLVTVSS VL: EIVLTQSPATLSLSPGERATLSCRASQSVSSYLAWYQQKPGQAPRLLIYDASNRATGIPARFSGSGSGTDFTLTISSLEPEDFAVYYCQQRSNWLMYTFGQGTKLEIK |  | no binding | no binding | no binding
DOTA-标记的7F12 (antibody, IgG1, V domains shown, DOTA coupled through one carboxyl group to protein amino groups, sites not stated; 111In chelated in the Scatchard study, 7F12 IgG1 kappa conjugated with DOTA; also called DOTA-7F12; 111 In-DOTA-标记抗体 7F12) VH: AVQLVQSGAEVKKPGESLKISCKGSGYSFTSFWIGWARQMPGKGLEWMGIIYPGDSDTRYSPSFQGQVTISADKSISTAYLQWSSLKASDTAMYYCATANSSFWNFDLWGRGTLVTVSS VL: EIVLTQSPATLSLSPGERATLSCRASQSVSSYLAWYQQKPGQAPRLLIYDASNRATGIPARFSGSGSGTDFTLTISSLEPEDFAVYYCQQRSNWLMYTFGQGTKLEIK | 0.5 |  |  | 

— CN1652821A (dated 2005)
